According to article PMC9605868:

Biological target: AP-1σ1 (cells' own, or HA-AP1S1) (UniProt P61966)
Assay: anti-Flag IP, western blot for AP-1
Conditions: reference: wild type; sites S366

**Q.** STING (from UniProt Q86WV6) S366A was tested. Which “binding against the reference” value did it give?
**A.** weaker
